Patent US6913917B2, “Anti-cocaine catalytic antibody” (priority 1996, dated 2005)
“Also recorded” adds a separate entry of the source.

What was measured:
Mab 15A10 = assay: Inhibition of Mab 15A10 cocaine hydrolysis; type: biochemical, Mouse; conditions: for inhibition of Mab 15A10: at 1 mM; for Ki: read-out: inhibition constant (K1 / Ki) for Mab 15A10
[1] = system: conscious, unrestrained animals; conditions: continuously infused cocaine 1 mg/kg/min, i.v. catecholamine infusion; previous work (19); cited from earlier work
[2] = inhalation of vaporized cocaine; cited from earlier work
catalytic mAb = assay: Inhibition of the activity of the catalytic mAbs; type: biochemical, mouse
[3] = system: cocaine esterase activity present in serum; assay: Inhibition of cocaine esterase activity present in serum; type: biochemical; conditions: 150 μM
[4] = ELISA with TSA 1, 2, and 3 bound to ovalbumin; type: binding
Source text: The rationale for varying the tether sites of TSA to carrier protein (BSA) was to expose unique epitopes and elect catalytic antibodies specific to each immunogen. In order to assess binding specificity, the catalytic antibodies were examined by ELISA with TSA 1, 2, and 3 bound to ovalbumin.

[5] = Hydrolysis of 3H-cocaine by Mab's (kinetic measurements); conditions: for Km: Michaelis constant, pH that optimized kcat/ko: in general pH 7.8, 6A12 pH 7.4, 2A10 pH 7.0; for krat: catalytic rate constant (turnover rate), same pH as Km; for kcat/ko: rate acceleration over spontaneous rate (kcat/kuncat)
LD90 cocaine = assay: Survival after LD90 cocaine infusion; type: in vivo, rat; conditions: for survival to LD90 cocaine infusion: cocaine 16 mg/kg at 1 mg/kg/min
[6] = Plasma concentrations at death by HPLC; type: in vivo, rat; conditions: compared to saline or Mab 1C1 control groups, antibody 100 mg/kg
[7] = system: cocaine-induced convulsions or death; conditions: antibody 100 mg/kg
[8] = Elisa analysis of single chain Fv fragment; type: binding; conditions: scFv of Mab 3B9
[9] = system: toxicity due to intraperitoneal cocaine; conditions: intraperitoneal administration, mouse; cited from earlier work
[10] = cocaine 1 mg/kg/min until death

Row | Molecule | binding specificity by ELISA [4] | Km [5] [µM] | krat [5] [min⁻¹] | kcat/ko [5] | also measured
1 | CN1[C@H]2CC[C@@H]1[C@@H](C(=O)O)[C@@H](OC(=O)c1ccccc1)C2 [benzoyl ecgonine] |  |  |  |  | inhibition of Mab 15A10 (Mab 15A10): no inhibition
2 | COC(=O)[C@H]1[C@@H](OC(=O)c2ccccc2)C[C@@H]2CC[C@H]1N2C [cocaine] |  |  |  |  | LD50 [1]: 10 mg/kg; LD90 [1]: 16 mg/kg; peak pulmonary vein concentration [2]: 10 to 30 µM
3 | CNC(=O)Oc1ccc2c(c1)[C@]1(C)CCN(C)[C@@H]1N2C [eserine, reference compound] |  |  |  |  | inhibition of the activity of any catalytic mAb (catalytic mAb; 1 mM): did not inhibit
4 | O=C(O)CNC(=O)c1ccccc1 [hippuric acid] |  |  |  |  | inhibition of Mab 15A10 (Mab 15A10): did not inhibit; also recorded: not an inhibitor
5 | O=C(O)c1ccccc1 [benzoic acid] |  |  |  |  | Kd (Mab 15A10; read-out: Kd, inhibition of Mab 15A10 in vitro): ~250 µM; Ki (Mab 15A10): 250 µM
6 | COC(=O)[C@@H]1[C@H]2CC[C@@H](C[C@@H]1O)N2C [ecgonine methyl ester] |  |  |  |  | inhibition of Mab 15A10 (Mab 15A10): not inhibited; also recorded: not observed
7 | COC(=O)C1C(OP(=O)(O)c2ccccc2)CC2CCC1N2C (centres unmarked) [free TSA 4] |  |  |  |  | inhibition of Mab 15A10 catalytic activity (Mab 15A10; free TSA 50 μM, bioreactor-produced Mab 15A10): completely inhibited; Ki (Mab 15A10): 0.23 µM; inhibition of all catalytic antibodies (enzymes) (catalytic mAb; 50 μM): inhibited completely; inhibition of cocaine esterase activity present in serum [3]: did not inhibit
8 | Mab 3B9: anti-cocaine catalytic monoclonal antibody elicited by TSA 1 (antibody, V domains shown, mouse) VH: DVQLQESGPGLVKPSQSLSLTCTVTGNSITSDYAWTWIRQFPGNKLEWMGYIRHIYGTRYNPSLISRISITRDTSKNQFFLQLDSVTAEDTATYYCVRYHYYGSAYWGQGTLVTVSAAKTTP VL: DIVMTQDELSNPVTSGESVSISCRSSRSLLYRDGKTYLNWFLQRPGRSPQLLIYLMSTRSSGVSDRFSGSGSGTDFTLEISRVKAEDVGVYYCQHFVDYPFTFGSGTKLEIKR | bound all three conjugates | 490 | 0.11 | 1100 | 
9 | Mab 6A12: anti-cocaine catalytic monoclonal antibody elicited by TSA 1 (antibody, mouse) heavy: DVQLQESGPGLVKPSQSLSLTCTVTGNSITSDYAWTWIRQFPGNKLEWMGYIRHIYGTRYNPSLISRISITRDTSKNQFFLQLDSVTAEDTATYYCVRYHYYGSAYWGQGTLVTVSAAKTTP light: DMVMTQDELSNPVTSGESVSISCRSSRSLLYRDGKTYLNWFLQRPGRSPQLLIYLMSTRASGVSDRFSGSGSGTDFTLEISRVKAEDVGVYYFQHFEDYPFTFGSGTKLEIKR | bound all three conjugates | 1020 | 0.072 | 880 | 
10 | Mab 2A10: anti-cocaine catalytic monoclonal antibody elicited by TSA 1 (antibody, mouse) heavy: ELVKPSQSLSLTCTVTGYSITSDYAWNWIRQFPGNRLEWMGYIRYSGITRYNPSLKSRISITRDTSKNKFFLQLNSVTTEDTATYYCVRIHYYGYGNWGQGTTLTGLP light: DMVMTQDELSNPVTSGESVSISCRSSKSLLYEDGKTYLNWFLQRPGQSPHLLIYLMSTRASGVSDRFSGSGSGTDFTLEISRVKAEDVGAYYCQQFVEYPFTFGSGTKLEIRR | bound all three conjugates | 3000 | 0.011 | 420 | 
11 | Mab 8G4E: anti-cocaine catalytic monoclonal antibody elicited by TSA 3 (antibody, V domains shown, mouse) VH: VQLLESGAELVMPGASVKMSCKASGYTFTDHWMHWVKQRPGQGLEWIGTIDLSDTYTGYNQNFKGRATLTLDESSNTAYMQLSSLTSEDSAVYYCSRRGFDYWGQGTTLTVSS VL: ELVMTQSPLTLSVTIGQPASISCKSSQSLLYSDGKTYLNWFFQRPGQSPKRLIYLVSKLDSGVPDRFTGSGSGKDFTLKISRVEAEDLGLYYCVQGYTFPLTFGAGTKLELKR | bound only TSA-1 and 3 | 1200 | 0.12 | 1100 | 
12 | Mab 15A10: mouse monoclonal anti-cocaine catalytic antibody elicited by TSA 1; most active (antibody, V domains shown, mouse) VH: SGPELVKPGASVKVSCKASGYSFTDYNMYWVKQNHGESLEWIAYIDPSNGDTFYNQKFQGKATVTLDKSSSTAFMHLNSLTSEDSAVYYCARGGGLFAFWGQGTLVTVSA VL: AVVTQESALTTSPGETVTLTCRSSTGTITSDNYANWVQEKPDHLFSGLIGVNNYRPPGVPARFSGSLTGDKAVLTITGAQTEDEAIYFCALWYSNHWVFGGGTKLTVLG | bound only TSA-1 and 3 | 220 | 2.3 | 2.3×10^4 | mean cocaine dose at death (LD90 cocaine; antibody 5 mg/kg): 8.2 ± 1.0 mg/kg; cocaine dose at death of the single non-survivor (LD90 cocaine; antibody 15 mg/kg): 15.9 mg/kg; survival to LD90 cocaine infusion (LD90 cocaine; antibody 15 mg/kg i.v.): Four of five; survival to LD90 cocaine infusion (LD90 cocaine; antibody 50 mg/kg i.v.): all of five; effect on survival / protection from cocaine toxicity (LD90 cocaine; result in words, p<0.001): dose-dependent increase in survival; also recorded: significant; increase in plasma ecgonine methyl ester [6]: > 10 fold; kcat (activity) remaining after repetitive turnover ([5]; after 6 hrs and >200 turnovers, of baseline): > 95%; potency relative to the first catalytic antibodies ([5]; at sub-saturating concentrations of cocaine): 100 fold; kcat/ko ([5]; listed as 15A10): 23000; increase of mean lethal dose of cocaine over controls [7]: over 3 fold; dose of cocaine at seizure (average) [7, 10]: 32.5 mg/kg; mean lethal dose of cocaine [7, 10]: 37.0 mg/kg
13 | Mab 8G4G: anti-cocaine catalytic monoclonal antibody elicited by TSA 3 (antibody, mouse) heavy: VQLLESGAELVKPGASVELSCRTSGYTFTTYYIYWVKQRPGQGLEWIGGMNPGNGVTYFNEKFKNRATLTVDRSSSIAYMQLSSLTSEDSAVYYCTRVGNSLLTGAEGLWSLSLQ light: TRAGETVTLTCRSSSGTITANNYGSWVQEKPDHLFTGLIGVSNNRGPGVPARFSGSLIGDKAVLTITGGQTEDEAIYFCALWNSNHFVFGGGTKLTVLGQ | bound only TSA-1 and 3 | 530 | 0.60 | 5500 | 
14 | single chain Fv fragment: single chain Fv fragment for catalytic monoclonal antibody 3B9, with FLAG and 6×His (protein, FLAG and 6xHis tags; mouse, single chain Fv fragment for catalytic monoclonal antibody 3B9, with FLAG and 6×His) scFv: MEVQLQESGPELVKPSQSLSLTCTVTGNSITSDYAWTWIRQFPGNKLEWMGYIRHIYGTRYNPSLISRISITRDTSKNQFFLQLDSVTAEDTATYYCVRYHYYGSAYWGQGTLVTVSAGMQSGGGGSGGGGSGGAMDIVMTQDELSNPVTSGESVSISCRSSRSLLYRDGKTYLNWFLQRPGRPPQLLIYLMSTRSSGVSDRFSGSGSGTDFTLEISRVKAEDVGVYYCQHFVDYPFTFGSGTKLEIKRADGAPTVSIFFPPSLDYKDDDDKLEHHHHHH |  |  |  |  | binding activity by Elisa [8]: demonstrated binding activity; catalytic activity (release of ^3H-benzoic acid from ^3H-phenyl-cocaine) ([5]; result in words): Enzymatic activity was confirmed
15 | butyrylcholinesterase: the enzyme butyrylcholinesterase; plasma enzyme that deactivates cocaine (protein, UniProt P06276 29-602, looked up) Cholinesterase: EDDIIIATKNGKVRGMNLTVFGGTVTAFLGIPYAQPPLGRLRFKKPQSLTKWSDIWNATKYANSCCQNIDQSFPGFHGSEMWNPNTDLSEDCLYLNVWIPAPKPKNATVLIWIYGGGFQTGTSSLHVYDGKFLARVERVIVVSMNYRVGALGFLALPGNPEAPGNMGLFDQQLALQWVQKNIAAFGGNPKSVTLFGESAGAASVSLHLLSPGSHSLFTRAILQSGSFNAPWAVTSLYEARNRTLNLAKLTGCSRENETEIIKCLRNKDPQEILLNEAFVVPYGTPLSVNFGPTVDGDFLTDMPDILLELGQFKKTQILVGVNKDEGTAFLVYGAPGFSKDNNSIITRKEFQEGLKIFFPGVSEFGKESILFHYTDWVDDQRPENYREALGDVVGDYNFICPALEFTKKFSEWGNNAFFYYFEHRSSKLPWPEWMGVMHGYEIEFVFGLPLERRDNYTKAEEILSRSIVKRWANFAKYGNPNETQNNSTSWPVFKSTEQKYLTLNTESTRIMTKLRAQQCRFWTSFFPKVLEMTGNIDEAEWEWKAGFHRWNNYMMDWKNQFNDYTSKKESCVGL |  |  |  |  | effect on toxicity due to intraperitoneal cocaine [9]: inhibit toxicity
16 | Mab 9A3: anti-cocaine catalytic monoclonal antibody elicited by TSA 1 (antibody, V domains shown, mouse) VH: SGPELVKPGASVKLSCKASGYPFTDYNMYWVKQSHGKSLEWIGYIDPSNGGIFYNQKFKGRATLTVDKSSNTAFMHLNSLTSEDSAVYYCARGGGLFAYWGQGTLVTVSE VL: TWPGETVTLTCRSSTGTITTSNYANWVQEKPDHLFSGLIGINNNRPPGVPARFSGSLIGDKAVLTITGAQTEDEAIYFCALWYSNHWVFGGGTKLTVLG | bound only TSA-1 and 3 | 270 | 0.015 | 140 | 
